Measured values taken from patent publication US20230331852A1 (OSE IMMUNOTHERAPEUTICS, published 2023).

Experiments:
[1] = molecular target: T1, recombinant human CLEC-1 protein with His Tag (#1704-CL R&D Systems) (human, UniProt Q8NC01 74-280); assay: Blitz biolayer interferometry, His-CLEC1 on Ni-NTA biosensor, antibody at 20 ug/mL
T1 construct: Bought protein; also called His-CLEC1; His Clec-1; not shown: His tag
T1 sequence: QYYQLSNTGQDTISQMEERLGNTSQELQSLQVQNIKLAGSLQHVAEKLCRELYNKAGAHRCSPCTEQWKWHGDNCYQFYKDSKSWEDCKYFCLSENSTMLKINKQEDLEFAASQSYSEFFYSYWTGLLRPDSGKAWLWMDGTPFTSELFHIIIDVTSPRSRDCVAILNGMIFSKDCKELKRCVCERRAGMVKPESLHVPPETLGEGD

[2] = molecular target: T2, Fc-CLEC1 labelled with Alexa Fluor 488 (human, Alexa Fluor 488 label (sites not given)); assay: FACS competition: blocks Fc-CLEC1-A488 (10 nM) binding to CLEC-1 ligand on UV-treated PBMC; % binding
T2 construct: also called Fc-CLEC1-A488; Alexa488-Fc-Clec-1
T2 chain: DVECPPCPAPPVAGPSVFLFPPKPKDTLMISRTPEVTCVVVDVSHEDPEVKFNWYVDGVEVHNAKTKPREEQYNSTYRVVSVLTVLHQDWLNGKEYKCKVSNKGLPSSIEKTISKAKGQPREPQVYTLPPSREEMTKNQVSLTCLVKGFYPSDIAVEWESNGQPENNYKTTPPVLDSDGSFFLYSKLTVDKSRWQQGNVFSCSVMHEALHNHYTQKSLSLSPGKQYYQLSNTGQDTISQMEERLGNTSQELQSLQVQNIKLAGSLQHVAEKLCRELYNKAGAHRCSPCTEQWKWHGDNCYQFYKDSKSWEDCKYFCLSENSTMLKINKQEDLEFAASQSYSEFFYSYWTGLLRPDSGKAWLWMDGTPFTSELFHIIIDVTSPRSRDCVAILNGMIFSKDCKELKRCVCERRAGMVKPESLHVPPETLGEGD
Experimental: (§1) Competition were also measured on UV pre-treated pro-apoptotic human PBMCs, which can also express the ligand after a treatment under UV radiation for 18 hours. After UV treatment, cells were first washed in cold-PSE and then blocked during 30 min at room temperature with human Fc-block 50-fold diluted in PSE, and then replaced on ice. Purified anti-Clec antibodies at different concentrations were pre-incubated with Alexa488-Fc-Clec-1 in PSE at different concentrations for 15 min at room temperature. Pre-incubated mixes were then incubated on Fc-blocked/SAB (#34005-100, Invitrogen, Illkirch, France) pro-apoptotic PBMCs for 30 min on ice. Binding on cells were then fixed by PFA 2% in cold PBS for 10 min on ice and analyzed on CytoFlex cytofluorometer (Beckman Coulter France, Villepinte).
(§2) Methods. To measure competition on permeabilised Raji (CytoFix/cytoperm kit, BD Biosciences) which expressed CLEC1 ligand, Fc-CLEC1-labelled A488 which bound specifically to permeabilised Raji was used. To measure competition, Fc-CLEC1 labelled A488 at 10 nM or 20 nM was mixed with mouse anti-hCLEC1 at different concentrations for 15 min at RT then added on these cells for 30 min at 4° C. […] To measure competition on PMBC, we used human PBMC pre-treated by UV for 18 h to obtain apoptotic PBMC, which expressed CLEC1 ligand. Fc-CLEC1-labelled A488 bound specifically apoptotic UV-treated PBMC. To measure competition, Fc-CLEC1 labelled A488 at 10 nM was mixed with mouse anti-hCLEC1 at different concentrations for 15 min at RT then added on these cells for 30 min at 4° C.

[3] = molecular target: T2, Fc-CLEC1 labelled with Alexa Fluor 488; assay: FACS competition: blocks Fc-CLEC1-A488 (10 nM) binding to CLEC-1 ligand on permeabilised Raji cells; IC50 median
Experimental: To measure competition, purified anti-Clec antibodies at different concentrations were pre-incubated in Perm Wash Buffer with Alexa488-Fc-Clec-1 for 15 min at room temperature. Pre-incubated mixes were then incubated on permeabilized and Fc-blocked Raji cells for 30 min on ice. Binding on cells were then fixed by PFA 2% in cold PBS for 10 min on ice and analyzed on CytoFlex cytofluorometer (Beckman Coulter France, Villepinte).
as §2

[4] = molecular target: T3, human CLEC-1A expressed on the cell membrane (human, UniProt Q8NC01 1-280); assay: flow cytometry on U266 cells, PE anti-human IgG; median fluorescence
T3 construct: Endogenous on human U266 myeloma cells, on monocyte-derived TGFb-DC and macrophages; on CHO cells after transduction with a Clec-1 expressing lentivirus; also called U266 CLEC1; CLEC-1A on U266 cells
T3 sequence: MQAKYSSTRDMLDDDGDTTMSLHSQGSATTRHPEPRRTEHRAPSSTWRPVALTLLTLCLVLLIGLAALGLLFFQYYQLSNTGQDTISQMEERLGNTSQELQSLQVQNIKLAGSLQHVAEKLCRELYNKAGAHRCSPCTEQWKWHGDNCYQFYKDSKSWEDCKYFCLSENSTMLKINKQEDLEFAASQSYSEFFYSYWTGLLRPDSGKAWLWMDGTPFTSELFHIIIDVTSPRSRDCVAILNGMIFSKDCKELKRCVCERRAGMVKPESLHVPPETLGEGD
Experimental: (§3) Method: To measure binding of anti-CLEC1 on human U266 cell lines (pre-blocked with Fcblock to blocking FcR), antibodies at different concentrations were incubated for 30 min at 4° C., and washed before stained 30 min at 4° C. with PE-labelled anti-human IgG (Biolegend; reference 409304). Samples were analyzed on Cytoflex cytofluorometer (Beckman Coulter). The MFI of anti-CLEC1 was compared between all anti-CLEC1 antibodies and percentage of stained cells was analysed in all conditions.

[5] = molecular target: T2, Fc-CLEC1 labelled with Alexa Fluor 488; assay: FACS competition: blocks Fc-CLEC1-A488 (10 nM) binding to CLEC-1 ligand on UV-treated PBMC
Experimental: as §1, §2

[6] = molecular target: T3, human CLEC-1A expressed on the cell …; assay: flow cytometry on U266 cells, PE anti-human IgG; % positive cells
Experimental: as §3

[7] = molecular target: T3, human CLEC-1A expressed on the cell …; assay: flow cytometry on U266 cells
Experimental: as §3

Kd [1]: 15.9 nM | koff [1]: 0.00124 s⁻¹ | kon [1]: 78000 M⁻¹ s⁻¹ | IC50 (read off the curve) [2]: ~0.7 µg/mL | IC50 [3]: 3.9 nM | EC50 (read off the curve) [4]: ~0.06 µg/mL | IC50 [5]: 0.873 µg/mL | EC50 (read off the curve) [6]: ~0.06 µg/mL | EC50 [7]: 0.113 µg/mL
B1: chimeric anti-CLEC-1A antibody 14H9 (antibody, human IgG4 S228P, kappa, V domains shown)
VH: QVQLKESGPGLVAPSQSLSITCTISGFSLTTYGIHWVRQPPGKGLEWLVVIWSDGSTIYNSALKSRLSISKDNSKSQVFLKMNSLQTDDTAIYYCARHGGYYNYFDYWGQGTTLTVSS
VL: DIQMNQSPSSLSASLGDTITITCHASQNINVWLSWYQQKPGNIPKLLIYKASNLHTGVPSRFSGSGSGTTFTLTIDSLQPEDIATYYCQQGQSYWTFGGGTKLEIKR
notes: also called 14H9chim; 14H9-VHwt-FcG4m / 14H9-VLwt-CLhk
